Where two headings read alike, the source gives them in different places.
Assays:
[1] = molecular target: human α2 integrin with endogenous hamster β1 on CHO cells (human; hamster); test: cell-based or functional assay
[2] = molecular target: T1, human platelet α2β1 integrin (immobilized on microtiter plates) (human, UniProt P17301 30-1181; P05556 21-798); test: competition with Eu-TMC-2206 on human platelet α2β1-coated plate, Cheng-Prusoff
T1 construct: plates custom-coated with human platelet α2β1 by GTI Inc; also called immobilized α2β1 integrin; α2β1-coated plates
Experimental: Each labeled antibody mixture was applied to a separate PD-10 column (GE Biosciences, Piscataway, N.J.) pre-equilibrated with Running Buffer (50 mM Tris, pH 7.4 and 138 mM NaCl). Fractions (0.5 mL) were collected and assayed for total protein (Bradford reagent; Bio-Rad Laboratories, Hercules, Calif.) using a SpectraMax 384 absorbance plate reader and for europium after 1:10.000 dilution in DELFIA Enhancement Solution (Perkin-Elmer) by time-resolved fluorescence (TRF) using a Victor2 multi-label plate reader (Perkin Elmer). The fractions that were positive for both protein and Eu label were pooled and applied to new PD-10 columns and samples collected and assayed for total protein and for europium content by TRF calibrated against a europium standard solution (Perkin-Elmer) to calculate the fluor: protein ratio. […] After incubating the sealed plates for 1 hr at 37° C. to allow binding to reach equilibrium, 2 μL samples were transferred from each well into a fresh well containing DELFIA Enhancement Solution (100 μL/well; Perkin-Elmer) for the measurement of free (unbound) label. […] The plate was shaken (Titer Plate Shaker speed setting of 5 for 5 minutes at room temperature) and time-resolved fluorescent (TRF) intensities were read using a Victor2 multi-label plate reader (Perkin-Elmer Wallac, Boston, Mas.).

[3] = molecular target: T1, human platelet α2β1 integrin …; test: competition with Eu-TMC-2206 on human platelet α2β1-coated plate
Experimental: Each labeled antibody mixture was applied to a separate PD-10 column (GE Biosciences, Piscataway, N.J.) pre-equilibrated with Running Buffer (50 mM Tris, pH 7.4 and 138 mM NaCl). Fractions (0.5 mL) were collected and assayed for total protein (Bradford reagent; Bio-Rad Laboratories, Hercules, Calif.) using a SpectraMax 384 absorbance plate reader and for europium after 1:10.000 dilution in DELFIA Enhancement Solution (Perkin-Elmer) by time-resolved fluorescence (TRF) using a Victor2 multi-label plate reader (Perkin Elmer). The fractions that were positive for both protein and Eu label were pooled and applied to new PD-10 columns and samples collected and assayed for total protein and for europium content by TRF calibrated against a europium standard solution (Perkin-Elmer) to calculate the fluor: protein ratio. […] After incubating the sealed plates for 1 hr at 37° C. to allow binding to reach equilibrium, 2 μL samples were transferred from each well into a fresh well containing DELFIA Enhancement Solution (100 μL/well; Perkin-Elmer) for the measurement of free (unbound) label. Enhancement Solution (100 μL/well) was added to the emptied wells for the measurement of bound label. The plate was shaken (Titer Plate Shaker speed setting of 5 for 5 minutes at room temperature) and time-resolved fluorescent (TRF) intensities were read using a Victor2 multi-label plate reader (Perkin-Elmer Wallac, Boston, Mas.).

[4] = molecular target: T1, human platelet α2β1 integrin …; test: as above; remark: listed apart in the source
[5] = molecular target: T2, Humanized TMC-2206 (hIgG4/κ VH12.0/VL10.0Q); test: fusion protein competing Eu-humanized TMC-2206 off α2β1-coated plates
T2 construct: labelled with Eu or Alexa-488 in some assays
From the text: The inhibition curves were fitted with the “one site competition” model using Prism software (GraphPad, Inc.) to obtain IC₅₀ values and to calculate the Kᵢ using the equation of Cheng and Prusoff (1973) and the respective values for KD from above.
The cloning of the human, rhesus macaque, rat, and mouse α2 I domains were described in Example 12. Cynomolgus and additional rhesus monkey α2 I domains were cloned from cDNA derived from total RNA extracted from skin tissue (MediCorp, Inc., Montreal, QC).

TMC-2206 [6] = molecular target: T3, TMC-2206; test: fusion protein competing Eu-TMC-2206 off α2β1-coated plate
T3 construct: murine IgG1/κ secreted by hybridoma BHA2.1; labelled with Eu-N1-ITC where used as tracer; also called BHA2.1
Experimental: After incubating the sealed plates for 1 hr at 37° C. to allow binding to reach equilibrium, 2 μL samples were transferred from each well into a fresh well containing DELFIA Enhancement Solution (100 μL/well; Perkin-Elmer) for the measurement of free (unbound) label. Enhancement Solution (100 μL/well) was added to the emptied wells for the measurement of bound label. The plate was shaken (Titer Plate Shaker speed setting of 5 for 5 minutes at room temperature) and time-resolved fluorescent (TRF) intensities were read using a Victor2 multi-label plate reader (Perkin-Elmer Wallac, Boston, Mas.).
The fusion proteins were then expressed and purified as described above for the human GST-α2 I domain fusion protein. […] Therefore, these and the primate fusion proteins were further purified by size exclusion chromatography on a Sephadex 75 10/30 (GE-Amersham) column (primate) by FPLC on an Akta-Basic FPLC system (GE-Amersham) to yield a monomeric fraction. […] The Kᵢ assays were performed as described above in Example 2. […] Plates were sealed and coating occurred overnight at 4° C. The next morning, the plates were washed twice with TBS solution and then blocked using 200 μL of the blocking solution described above for 1 hour at room temperature with shaking. After blocking, the blocking solution was removed but the wells were not washed. […]

TMC-2206 [7] = molecular target: T3, TMC-2206; test: ELISA, GST fusion protein on immobilized TMC-2206
Experimental: The Kᵢ assays were performed as described above in Example 2. […] Plates were sealed and coating occurred overnight at 4° C. The next morning, the plates were washed twice with TBS solution and then blocked using 200 μL of the blocking solution described above for 1 hour at room temperature with shaking. After blocking, the blocking solution was removed but the wells were not washed. Instead, a serial dilution of GST fusion protein was made, added to the wells and then incubated for 2 hours at room temperature with shaking. The wells were then aspirated and a TBS washing buffer applied for 5 minutes at room temperature. The washing step was repeated twice more before the secondary antibody was applied. The secondary antibody step consisted of Amersham's HRP-conjugated rabbit anti-GST antibody diluted 1:2000 in blocking buffer. One hundred μL of secondary antibody was added to each well and incubated at room temperature for 1.5 hours with shaking. The wells were again aspirated and washed three times with wash buffer before adding the substrate reaction mixture. One hundred μL of substrate reaction mixture (1:1 dilution of TMB kit) was then added to each well for 6 minutes. […] The reaction within the wells was then read and quantified by spectrophotometric absorption using the Molecular Dynamics plate reader and associated Softmax software, respectively. […]

TMC-2206 [8] = molecular target: T3, TMC-2206; test: fusion protein competing Eu-TMC-2206 off α2β1-coated plate; remark: listed apart in the source
Experimental: Wells in a 96 well microtiter plate were coated with platelet α2β1-integrin (custom-coated with human platelet α2β1 by GTI Inc., Wis.) and then blocked with nonfat milk. […] After concentration in prewashed MicroSep concentrators (30-kDa cutoff; Pall Life Sciences at 9500 rpm (7000×g) in a JA-20 rotor (Beckman Instruments, Inc.) for 20 minutes at 4° C.), antibodies were adjusted to 4.0 mg/mL with PBS containing a final concentration of 100 mM NaHCO₃, pH 9.3. The mAb/bicarbonate mixture (0.250 mL) was gently mixed into a vial containing 0.2 mg N¹-(p-isothiocyanatobenzyl)-diethylenetriamine-N¹,N²,N³N³-tetraacetic acid chelated with Eu³⁺ (Eu-N1-ITC; Perkin Elmer Life Sciences) and reacted overnight at 4° C. without stirring. Each labeled antibody mixture was applied to a separate PD-10 column (GE Biosciences, Piscataway, N.J.) pre-equilibrated with Running Buffer (50 mM Tris, pH 7.4 and 138 mM NaCl). Fractions (0.5 mL) were collected and assayed for total protein (Bradford reagent; Bio-Rad Laboratories, Hercules, Calif.) using a SpectraMax 384 absorbance plate reader and for europium after 1:10.000 dilution in DELFIA Enhancement Solution (Perkin-Elmer) by time-resolved fluorescence (TRF) using a Victor2 multi-label plate reader (Perkin Elmer). The fractions that were positive for both protein and Eu label were pooled and applied to new PD-10 columns and samples collected and assayed for total protein and for europium content by TRF calibrated against a europium standard solution (Perkin-Elmer) to calculate the fluor: protein ratio.

TMC-2206 [9] = molecular target: T3, TMC-2206; test: as above; remark: listed apart in the source
TMC-2206 [10] = molecular target: T3, TMC-2206; test: ELISA, GST fusion protein on immobilized TMC-2206 (Kd apparent)
Experimental: The fusion proteins were then expressed and purified as described above for the human GST-α2 I domain fusion protein. […] Therefore, these and the primate fusion proteins were further purified by size exclusion chromatography on a Sephadex 75 10/30 (GE-Amersham) column (primate) by FPLC on an Akta-Basic FPLC system (GE-Amersham) to yield a monomeric fraction. […] The Kᵢ assays were performed as described above in Example 2. […] Plates were sealed and coating occurred overnight at 4° C. The next morning, the plates were washed twice with TBS solution and then blocked using 200 μL of the blocking solution described above for 1 hour at room temperature with shaking. After blocking, the blocking solution was removed but the wells were not washed. Instead, a serial dilution of GST fusion protein was made, added to the wells and then incubated for 2 hours at room temperature with shaking. The wells were then aspirated and a TBS washing buffer applied for 5 minutes at room temperature. The washing step was repeated twice more before the secondary antibody was applied. The secondary antibody step consisted of Amersham's HRP-conjugated rabbit anti-GST antibody diluted 1:2000 in blocking buffer. One hundred μL of secondary antibody was added to each well and incubated at room temperature for 1.5 hours with shaking. The wells were again aspirated and washed three times with wash buffer before adding the substrate reaction mixture. One hundred μL of substrate reaction mixture (1:1 dilution of TMB kit) was then added to each well for 6 minutes. The reaction was stopped by adding 100 μL of 0.1M H₂SO₄. The reaction within the wells was then read and quantified by spectrophotometric absorption using the Molecular Dynamics plate reader and associated Softmax software, respectively. Kd values were then estimated from the EC₅₀ values using Prism software (Graphpad, Calif.).

T1 sequence (P17301 30-1181 E534K limits assumed, chain 1 of 2): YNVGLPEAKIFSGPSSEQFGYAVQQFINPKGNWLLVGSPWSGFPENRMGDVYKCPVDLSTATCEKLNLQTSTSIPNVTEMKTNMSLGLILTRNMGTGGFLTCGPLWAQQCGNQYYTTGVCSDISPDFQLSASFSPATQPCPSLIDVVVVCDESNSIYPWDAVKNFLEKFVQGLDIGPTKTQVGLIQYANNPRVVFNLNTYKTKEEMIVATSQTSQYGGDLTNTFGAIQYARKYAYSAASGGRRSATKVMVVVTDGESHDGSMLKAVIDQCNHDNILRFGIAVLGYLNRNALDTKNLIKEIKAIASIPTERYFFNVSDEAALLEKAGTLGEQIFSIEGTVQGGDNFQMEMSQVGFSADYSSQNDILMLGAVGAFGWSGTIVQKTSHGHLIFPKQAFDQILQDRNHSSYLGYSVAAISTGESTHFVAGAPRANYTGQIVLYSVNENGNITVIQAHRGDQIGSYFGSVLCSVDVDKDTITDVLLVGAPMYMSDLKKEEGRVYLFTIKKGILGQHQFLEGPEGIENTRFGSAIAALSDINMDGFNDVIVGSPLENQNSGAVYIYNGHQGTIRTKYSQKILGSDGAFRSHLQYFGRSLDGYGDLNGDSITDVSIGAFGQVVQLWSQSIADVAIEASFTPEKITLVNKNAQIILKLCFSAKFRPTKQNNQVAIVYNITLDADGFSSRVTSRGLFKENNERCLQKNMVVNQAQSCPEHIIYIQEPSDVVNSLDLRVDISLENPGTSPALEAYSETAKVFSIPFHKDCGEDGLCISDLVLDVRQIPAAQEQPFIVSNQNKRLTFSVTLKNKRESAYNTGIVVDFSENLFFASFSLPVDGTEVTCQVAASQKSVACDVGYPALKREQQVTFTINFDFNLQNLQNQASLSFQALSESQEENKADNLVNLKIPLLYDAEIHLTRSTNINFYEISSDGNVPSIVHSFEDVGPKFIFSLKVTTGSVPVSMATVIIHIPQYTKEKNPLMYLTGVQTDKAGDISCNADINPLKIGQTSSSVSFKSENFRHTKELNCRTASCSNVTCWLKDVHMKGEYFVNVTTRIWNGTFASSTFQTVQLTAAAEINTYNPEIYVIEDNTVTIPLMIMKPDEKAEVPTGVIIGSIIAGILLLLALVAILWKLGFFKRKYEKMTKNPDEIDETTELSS
T1 sequence (P05556 21-798 limits assumed, chain 2 of 2): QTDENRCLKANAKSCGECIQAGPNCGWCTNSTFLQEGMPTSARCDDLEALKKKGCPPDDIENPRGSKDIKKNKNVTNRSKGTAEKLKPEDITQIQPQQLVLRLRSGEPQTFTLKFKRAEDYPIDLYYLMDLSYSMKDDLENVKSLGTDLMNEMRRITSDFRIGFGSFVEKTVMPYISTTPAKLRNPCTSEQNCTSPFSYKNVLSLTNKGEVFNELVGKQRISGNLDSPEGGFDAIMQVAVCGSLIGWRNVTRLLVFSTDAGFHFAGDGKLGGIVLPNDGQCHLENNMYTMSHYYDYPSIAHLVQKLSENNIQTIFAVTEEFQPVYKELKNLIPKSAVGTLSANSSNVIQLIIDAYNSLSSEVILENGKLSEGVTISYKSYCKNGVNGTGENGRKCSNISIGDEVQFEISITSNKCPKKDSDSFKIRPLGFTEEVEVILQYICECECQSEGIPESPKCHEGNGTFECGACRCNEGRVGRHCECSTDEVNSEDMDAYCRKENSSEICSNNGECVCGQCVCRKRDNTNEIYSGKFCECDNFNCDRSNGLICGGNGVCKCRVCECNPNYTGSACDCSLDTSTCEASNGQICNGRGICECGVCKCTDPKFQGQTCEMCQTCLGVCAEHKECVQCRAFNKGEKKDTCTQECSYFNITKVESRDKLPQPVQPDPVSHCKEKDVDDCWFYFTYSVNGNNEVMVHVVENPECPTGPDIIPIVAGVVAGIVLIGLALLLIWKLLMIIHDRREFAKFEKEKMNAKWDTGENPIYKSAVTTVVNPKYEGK
T2 sequence (heavy, as listed by the source, chain 1 of 2): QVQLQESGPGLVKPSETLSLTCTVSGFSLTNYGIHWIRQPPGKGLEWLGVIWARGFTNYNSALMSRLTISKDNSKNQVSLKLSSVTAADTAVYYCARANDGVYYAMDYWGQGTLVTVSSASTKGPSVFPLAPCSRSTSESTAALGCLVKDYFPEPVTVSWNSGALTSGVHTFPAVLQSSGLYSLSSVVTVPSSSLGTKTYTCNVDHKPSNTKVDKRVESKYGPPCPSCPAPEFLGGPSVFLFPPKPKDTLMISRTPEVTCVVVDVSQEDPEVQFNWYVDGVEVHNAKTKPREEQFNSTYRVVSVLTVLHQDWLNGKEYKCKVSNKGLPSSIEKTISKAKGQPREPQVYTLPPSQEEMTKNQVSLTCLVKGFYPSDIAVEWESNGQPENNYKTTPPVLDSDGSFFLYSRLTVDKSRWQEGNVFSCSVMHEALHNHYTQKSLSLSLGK
T2 sequence (light, as listed by the source, chain 2 of 2): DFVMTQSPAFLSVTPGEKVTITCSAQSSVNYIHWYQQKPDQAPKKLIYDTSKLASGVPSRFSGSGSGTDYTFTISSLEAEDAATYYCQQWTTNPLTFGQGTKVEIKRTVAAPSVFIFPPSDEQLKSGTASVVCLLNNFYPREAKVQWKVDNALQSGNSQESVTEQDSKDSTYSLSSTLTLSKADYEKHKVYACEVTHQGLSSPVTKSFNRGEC
human α2 integrin with endogenous hamster β1 on CHO cells (human; hamster), sequence (P17301 30-1181 E534K): as the sequence (P17301 30-1181 E534K limits assumed, chain 1 of 2) above

B1: mouse-human chimeric TMC-2206 antibody (wild type chimera) (antibody, human IgG1, V domains shown)
VH: QVQLKESGPGLVAPSQSLSITCTVSGFSLTNYGIHWVRQPPGKGLEWLGVIWARGFTNYNSALMSRLIITKDNSQSQVFLKMNSLQPDDSATYFCARANDGVYYAMDYWGQGTSVTVSS
VL: QFVLTQSPAFLSASPGEKVTMTCSANSSVNYIHWYQQKSGTSPKKWIYDTSKLASGVPVRFSGSGSGTSYSLTISSMETEDAATYYCQQWTTNPLTFGAGTRVELK
notes: murine VH and VL on human IgG1 Fc and human κ constant region; also called wt chimera
In the case of B1, the “EC50, inhibition of adhesion of CHO-α2 cells to collagen Type I” value [1] is reported as 1.8 nM, the Ki [2] is reported as 0.27 nM and the Ki [3] is reported as 0.26 nM. It also gave a Ki [4] of 0.52 nM.

B2: mouse-human chimeric TMC-2206 antibody carrying the two LC mutations of the SalI site (antibody, human IgG1, V domains shown)
VH: QVQLKESGPGLVAPSQSLSITCTVSGFSLTNYGIHWVRQPPGKGLEWLGVIWARGFTNYNSALMSRLIITKDNSQSQVFLKMNSLQPDDSATYFCARANDGVYYAMDYWGQGTSVTVSS
VL: QFVLTQSPAFLSASPGEKVTMTCSANSSVNYIHWYQQKSGTSPKKWIYDTSKLASGVPVRFSGSGSGTSYSLTISSMETEDAATYYCQQWTTNPLTFGAGTRVDIK
notes: human IgG1 Fc and human κ constant region; 'L1061' is printed for L106I; also called chimeric form carrying the two LC mutations
B2 gave a Ki [2] of 0.27 nM.

B3: GST-rhesus α2 I domain fusion protein (other)
chain: SPDFQLSASFSPATQPCPSLIDVVVVCDESNSIYPWDAVKNFLEKFVQGLDIGPTKTQVGLIQYANNPRVVFNLNTYKTKEEMIVATSQTSQYGGDLTNTFGAIQYARKYAYSAASGGRRSATKVMVVVTDGESHDGSMLKAVIDQCNHDNILRFGIAVLGYLNRNALDTKNLIKEIKAIASIPTERYFFNVSDEAALLEKAGTLGEQIFSIEGTV
notes: also called rhesus GST-α2 I; not shown: glutathione S-transferase tag encoded by vector pGEX-2TK
B3 gave a Ki [5] of 0.4 nM and a Ki (TMC-2206 [6]) of 4.4 nM.

B4: GST-cynomolgus α2 I domain fusion protein of Example 12 (aspartic acid at position 40) (other)
chain: SPDFQLSASFSPATQPCPSLIDVVVVCDESNSIYPWDAVDNFLEKFVQGLDIGPTKTQVGLIQYANNPRVVFNLNTYKTKEEMIVATSQTSQYGGDLTNTFGAIQYARKYAYSAASGGRRSATKVMVVVTDGESHDGSMLKAVIDQCNHDNILRFGIAVLGYLNRNALDTKNLIKEIKAIASIPTERYFFNVSDEAALLEKAGTLGEQIFSIEGTV
notes: also called cynomolgus monkey GST-α2 I; polymorphic cynomolgus I domain; not shown: glutathione S-transferase tag encoded by vector pGEX-2TK
B4: no binding (tested: 40 nM) (TMC-2206 [7]).

B5: GST-mouse α2 I domain fusion protein (other)
chain: SPDFQFLTSFSPAVQACPSLVDVVVVCDESNSIYPWEAVKNFLVKFVTGLDIGPKKTQVALIQYANEPRIIFNLNDFETKEDMVQATSETRQHGGDLTNTFRAIEFARDYAYSQTSGGRPGATKVMVVVTDGESHDGSKLKTVIQQCNDDEILRFGIAVLGYLNRNALDTKNLIKEIKAIASTPTERYFFNVSDEAALLEKAGTLGEQIFSIEGTVQGGDNFQMEMSQ
notes: also called murine α2 I-GST fusion protein; not shown: glutathione S-transferase tag encoded by vector pGEX-2TK
With B5 the “fold shift in affinity” value (TMC-2206 [7]) was over 1500 fold.

B6: GST-human α2 I domain fusion protein (other)
chain: GSSPDFQLSASFSPATQPCPSLIDVVVVCDESNSIYPWDAVKNFLEKFVQGLDIGPTKTQVGLIQYANNPRVVFNLNTYKTKEEMIVATSQTSQYGGDLTNTFGAIQYARKYAYSAASGGRRSATKVMVVVTDGESHDGSMLKAVIDQCNHDNILRFGIAVLGYLNRNALDTKNLIKEIKAIASIPTERYFFNVSDEAALLEKAGTLGEQIFSIEGTVEFIVTD
notes: the reverse primer ends at ...SIEGTV; also called GST-α2 I domain; hα2I; not shown: glutathione S-transferase tag encoded by vector pGEX-2TK
B6 was tested, and the Ki (TMC-2206 [8]) was 0.18 nM, the Ki (TMC-2206 [9]) was 0.28 nM and the Ki [5] was 0.57 nM. It also gave a Ki (TMC-2206 [6]) of 0.33 nM.

B7: GST-hα2 I domain A115T (other)
chain: GSSPDFQLSASFSPATQPCPSLIDVVVVCDESNSIYPWDAVKNFLEKFVQGLDIGPTKTQVGLIQYANNPRVVFNLNTYKTKEEMIVATSQTSQYGGDLTNTFGAIQYARKYAYSATSGGRRSATKVMVVVTDGESHDGSMLKAVIDQCNHDNILRFGIAVLGYLNRNALDTKNLIKEIKAIASIPTERYFFNVSDEAALLEKAGTLGEQIFSIEGTVEFIVTD
notes: same construct as m41; not shown: GST carrier with the pGEX-2TK vector linker at the N end
B7 showed a Ki (TMC-2206 [8]) of 0.76 nM and a Kd (TMC-2206 [10]) of 0.19 nM.
